Target: T1, 6xHis–Rab35^WT full-length (human, UniProt Q15286 1-201)
T1 construct: Rab35 GTPase, full-length, wild type; Exchanged with 1 mM GDP or 200 μM GTPγS before the pull-down; The species is not repeated for the His construct; also called 6xHis-tagged Rab35^WT; source: E. coli BL21 pLysS, purified (Ni-NTA Magnetic Agarose Beads)
Assay: pull-down; GST–PODXL tail or GST on glutathione Sepharose 4B beads incubated with 6xHis-Rab proteins exchanged with 1 mM GDP or 200 μM GTPγS; 25 mM Tris pH 7.5, 50 mM NaCl, 10 mM MgCl2, 0.1% Triton X-100, 0.2% BSA; western blot with anti-6xHis
Details: both partners purified

T1 sequence (Q15286 whole entry): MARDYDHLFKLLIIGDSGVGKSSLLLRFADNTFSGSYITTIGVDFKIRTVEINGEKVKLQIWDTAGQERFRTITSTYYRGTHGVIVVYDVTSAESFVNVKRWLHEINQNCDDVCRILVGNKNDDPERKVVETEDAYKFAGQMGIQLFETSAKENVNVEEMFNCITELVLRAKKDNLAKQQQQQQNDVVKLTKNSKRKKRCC

B1: GST–PODXL WT (aa 476–551) (domain or fragment, rabbit, UniProt Q28645 476-551, looked up)
chain: CHQRLSHRKDQQRLTEELQTVENGYHDNPTLEVMETSAEMQEKKVVNLNGELGDSWIVPLDNLTKDDLDEEEDTHL
notes: The species is not repeated for the GST construct; source: E. coli BL21 pLysS, purified (glutathione Sepharose 4B)
B1: binds.

Reference: article PMC4822036, “Rab35 GTPase couples cell division with initiation of epithelial apico-basal polarity and lumen opening” (Nature Communications, 2016)
